B1: TfRANTIBODY-A HC-H3(HA) hIgG1Fab′(1C)/LC-L0 hKappa (Fab, V domains shown)
VH: QSLVESGGGLVQPGGSLRLSCKASGIDFSSSGYMHWVRQAPGKGLEWVGAIYTYSSNTYYASWAKGRFTISKDSKNSVYLQMNSLKTEDTAVYYCARGTYGYTGYTYTMGYFSLWGPGTLVTVSS
VL: DIQMTQSPSTLSASVGDRVTITCQASQNINSYLAWYQQKPGKAPKLLIYRASSLESGVPSRFSGSGSGTEFTLTISSLQPDDFATYYCQSYYYSGSSNYNAFGGGTKVEIKR
notes: also called ANTIBODY-A H3(HA)/L0; H3C(HA)/L0
B2: TfRANTIBODY-A HC-H3(SV) hIgG1Fab′(1C)/LC-L0 hKappa (Fab, V domains shown)
VH: B1 VH with H35S, A50V
VL: B1 VL
notes: also called ANTIBODY-A H3(SV)/L0
B3: TfRANTIBODY-A HC-H3(SY) hIgG1Fab′(1C)/LC-L0 hKappa (Fab, V domains shown)
VH: B1 VH with H35S, A50Y
VL: B1 VL
notes: also called ANTIBODY-A H3(SY)/L0
B4: TfRANTIBODY-A HC-H3(SR) hIgG1Fab′(1C)/LC-L0 hKappa (Fab, V domains shown)
VH: B1 VH with H35S, A50R
VL: B1 VL
notes: also called ANTIBODY-A H3(SR)/L0
B5: TfRANTIBODY-B HC-H1(HA) hIgG1Fab′(1C/LC-L2 hKappa (Fab, V domains shown)
VH: QSLVESGGGVVQPGRSLRLSCAASGFSFSNSYWIHWVRQAPGKGLEWVAAINTDADSTNYADSVKGRFTISKDNSKNTVYLQMNSLRAEDTAVYYCARQNNVFDPGYNLWGQGTLVTVSS
VL: ELVLTQSPSTLSASVGDRVTITCRASQNIGSNLAWYQQKPGKAPKLLIYDASKLESGVPSRFSGSGSGTEFTLTISSLQPDDFATYYCQCTVRGGAYGNAFGGGTKVEIKR
notes: also called ANTIBODY-B H1(HA)/L2
B6: TfRANTIBODY-B HC-H1(SV) hIgG1Fab′(1C)/LC-L2 hKappa (Fab, V domains shown)
VH: B5 VH with H35S, A50V
VL: B5 VL
notes: also called ANTIBODY-B H1(SV)/L2
B7: TfRANTIBODY-B HC-H1(SR) hIgG1Fab′(1C)/LC-L2 hKappa (Fab, V domains shown)
VH: B5 VH with H35S, A50R
VL: B5 VL
notes: also called ANTIBODY-B H1(SR)/L2
B8: TfRANTIBODY-B HC-H1(SY) hIgG1Fab′(1C)/LC-L2 hKappa (Fab, V domains shown)
VH: B5 VH with H35S, A50Y
VL: B5 VL
notes: also called ANTIBODY-B H1(SY)/L2
B9: Rabbit ANTIBODY-B chi Fab (Fab, V domains shown)
VH: QSLEESGGGLVQPEGSLTLTCKASGFSFSNSYWICWVRQAPGKGLEWIGCINTDADSTNYASWARGRFTISKTSSTTVTLQMTSLTAADTASYFCARQNNVFDPGYNLWGPGTLVTVSS
VL: ELVLTQTPASVSEAVGGTVTIKCQASQNIGSNLAWYQQKPGQPPKLLIYDASKLASGVPSRFSGSGSGTEFTLTISDLECADAATYYCQCTVRGGAYGNAFGGGTEVVVK
notes: chimeric Fab, rabbit variable regions; constant regions of the Fab not specified (chimeric antibodies were made with a human IgG1 framework); also called chimeric rabbit Fab fragment of RabANTIBODY-B
B10: Rabbit ANTIBODY-A chi Fab (Fab, V domains shown)
VH: QSLEESGGGLVQPGASLTLTCKASGIDFSSSGYMCWVRQAPGKGLEWIGCIYTYSSNTYYASWAKGRFTISKTSSTTVTLQMTSLTAADTATYFCARGTYGYTGYTYTMGYFSLWGPGTLVTVSS
VL: ELDMTQTPASVEAAVGGTVTIKCQASQNINSYLAWYQQKPGQPPKLLIYRASTLASGVPSRFKGSGSGTEFTLTISDLECADAATYYCQSYYYSGSSNYNAFGGGTELEIL
notes: chimeric Fab, rabbit variable regions; constant regions of the Fab not specified (chimeric antibodies were made with a human IgG1 framework); also called chimeric rabbit Fab fragment of RabANTIBODY-A
B11: TfR1 ANTIBODY-B HC-H1 hIgG1 Fab′(1C)/LC-L2 hKappa (Fab, V domains shown)
VH: B5 VH with H35A
VL: B5 VL
notes: also called ANTIBODY-B H1/L2
B12: TfR1 ANTIBODY-B HC-H2 hIgG1 Fab′(1C)/LC-L2 hKappa (Fab, V domains shown)
VH: QSLVESGGGVVQPGRSLRLSCKASGFSFSNSYWIAWVRQAPGKGLEWVAAINTDADSTNYADSVKGRFTISKDSSTTVYLQMNSLRAEDTAVYYCARQNNVFDPGYNLWGQGTLVTVSS
VL: B5 VL
notes: also called ANTIBODY-B H2/L2
B13: TfR1 ANTIBODY-B HC-H3 hIgG1 Fab′(1C)/LC-L2 hKappa (Fab, V domains shown)
VH: B5 VH with H35A, D62S, S63W, V64A, K65R, V79L
VL: B5 VL
notes: also called ANTIBODY-B H3/L2
B14: TfR1 ANTIBODY-B HC-H0C hIgG1 Fab′(1C)/LC-L2 hKappa (Fab, V domains shown)
VH: QVQLVESGGGVVQPGRSLRLSCAASGFSFSNSYWICWVRQAPGKGLEWVGCINTDADSTNYADSVKGRFTISRDNSKNTLYLQMNSLRAEDTAVYYCARQNNVFDPGYNLWGQGTLVTVSS
VL: B5 VL
notes: also called ANTIBODY-B H0C/L2
B15: TfR1 ANTIBODY-B HC-H0 hIgG1 Fab′(1C)/LC-L2 hKappa (Fab, V domains shown)
VH: B14 VH with C36A, G50A, C51A
VL: B5 VL
notes: also called ANTIBODY-B H0/L2

Positions count from the first letter of the chain named. In names and notes the source's numbering stands.

This is an account of results in patent US20240158494A1 (Biogen, published 2024).

The first assay addresses T1, human transferrin receptor 1 (TfR1), full length, expressed on cells (human, UniProt P02786 1-760).
T1 construct: also called human TfR1; huTfR
In words: FACS on Ba/F3 cells, Fab supernatant.
B1: the EC50 was found to be 16.8 nM.
Regarding B2, the EC50 was over 150 nM.
Molecule B3 returned an EC50 of over 125 nM.
In the case of B4, the EC50 was over 290 nM.
Still for that read-out and setting: in the case of B5 it was 18.2 nM; in that of B6, 98.6 nM.
Turning to B7, the binding result is “no binding”.
As for B8, a half-maximal response (EC50) required 113 nM.

The target of another assay is T2, cynomolgus monkey transferrin receptor 1 (TfR1), full length, expressed on cells (cynomolgus monkey, UniProt Q5RDH6 1-760 (Pongo abelii entry)).
T2 construct: also called cyno TfR1; cyTfR
The experiment in a line: FACS on Ba/F3 cells, Fab supernatant.
With B1, the EC50 is about 30 nM.
Regarding B2, the binding result is “no binding”.
In the case of B3, the binding result was “no binding”.
With B4, the binding result is on record as “no binding”.
The molecule B5 gave a concentration for a half-maximal effect (EC50) of 7.1 nM.
Turning to B6, the response was half-maximal at 30 nM (EC50).
In the case of B7, the binding result is listed as “no binding”.
Turning to B8, the EC50 was over 55 nM.

Another assay addresses T3, recombinant cynomolgus monkey TfR1 extracellular domain, His-tagged (cynomolgus monkey, UniProt Q5RDH6 87-760 (Pongo abelii entry)).
T3 construct: also called Cyno TfR1 ECD; cyno TfR1 ECD-His
In words: SPR, TfR1 ECD-His captured, Fab injected, 1:1 fit.
As for B9, the Kd amounted to 1.5 nM, the koff is 0.000436 s⁻¹ and the kon was determined as 283000 M⁻¹ s⁻¹.
In the same order, the values of B10 are 29 nM, 0.00925 s⁻¹ and 317000 M⁻¹ s⁻¹.
The like results for B11 were, in that order, 12 nM, 0.00105 s⁻¹ and 88300 M⁻¹ s⁻¹.
For the molecule B12, the Kd was 8.7 nM, the koff came to 0.00113 s⁻¹ and the kon was found to be 129000 M⁻¹ s⁻¹.
For the molecule B13, the Kd amounted to 12 nM, the dissociation rate constant (koff) came to 0.00172 s⁻¹ and the kon was determined as 143000 M⁻¹ s⁻¹.
As to B14, the Kd came out at 6.5 nM, the koff turned out to be 0.00136 s⁻¹ and the kon turned out to be 210000 M⁻¹ s⁻¹.

In the next assay the target is T4, recombinant human TfR1 extracellular domain, His-tagged (human, UniProt P02786 89-760).
T4 construct: also called Human TfR1 ECD; human TfR1 ECD-His
In words: SPR, TfR1 ECD-His captured, Fab injected, 1:1 fit.
Consider B9, for which the Kd was 5.8 nM, the koff turned out to be 0.000573 s⁻¹ and the association rate constant (kon) came out at 99200 M⁻¹ s⁻¹.
In the same order, the values of B10 are 5.2 nM, 0.00101 s⁻¹ and 192000 M⁻¹ s⁻¹.
Turning to B11, the Kd amounted to 47.8 nM, the koff is 0.00453 s⁻¹ and the kon was 94700 M⁻¹ s⁻¹.
In the case of B12, the Kd was determined as 39.4 nM, the koff came out at 0.00328 s⁻¹ and the kon came out at 83200 M⁻¹ s⁻¹.
As to B13, the Kd was determined as 65 nM, the koff is 0.00595 s⁻¹ and the kon was 91500 M⁻¹ s⁻¹.
In the same order, the values of B14 are 14.1 nM, 0.00343 s⁻¹ and 244000 M⁻¹ s⁻¹.

The target in a further assay is T1, human transferrin receptor 1 (TfR1), …. In words: FACS on Ba/F3 cells, Fab supernatant. This is another data set of the same source.
Consider B11, for which the EC50 stood at 9.6 nM.
Molecule B15 returned an EC50 of 168 nM.
The same measure, in the same setting: with B12 the figure was 10.2 nM; with B13, 15.7 nM; with B14, 9.3 nM.

The target in a further assay is T2, cynomolgus monkey transferrin receptor …. In words: FACS on Ba/F3 cells, Fab supernatant. This is another data set of the same source.
Take B11: it took 4.9 nM to reach a half-maximal effect (EC50).
On the same count and under the same terms, with B15 the figure was 44.5 nM; with B12, 7.7 nM.
Still for that read-out and setting: in the case of B13 it was 5.7 nM; in that of B14, 5.5 nM.

The target of a further assay is T3, recombinant cynomolgus monkey TfR1 …. In words: SPR, TfR1 ECD-His captured, Fab 50 and 500 nM, no transferrin.
With B9, the Kd is 3.8 nM, the koff was 0.00095 s⁻¹ and the kon is 250000 M⁻¹ s⁻¹.
In the same order, the values of B10 are 43 nM, 0.01 s⁻¹ and 230000 M⁻¹ s⁻¹.

For the next assay, the target named is T4, recombinant human TfR1 extracellular …. Described as above.
In the case of B9, the Kd was 12 nM, the koff turned out to be 0.0018 s⁻¹ and the on-rate constant (kon) was determined as 140000 M⁻¹ s⁻¹.
Take B10: the Kd came out at 7 nM, the koff was determined as 0.0012 s⁻¹ and the kon was 170000 M⁻¹ s⁻¹.

The target of another assay is T3, recombinant cynomolgus monkey TfR1 …. In words: SPR, TfR1 ECD-His captured, in the presence of 1 mM holo human transferrin.
As to B9, the Kd came out at 3.5 nM, the koff was found to be 0.00094 s⁻¹ and the kon stood at 270000 M⁻¹ s⁻¹.
The like results for B10 were, in that order, 43 nM, 0.01 s⁻¹ and 230000 M⁻¹ s⁻¹.

Another assay concerns the target T4, recombinant human TfR1 extracellular …. The assay is described as above.
For B9, the Kd came to 8.2 nM, the koff is 0.0015 s⁻¹ and the kon was determined as 180000 M⁻¹ s⁻¹.
In the same order, the values of B10 are 6.8 nM, 0.0012 s⁻¹ and 170000 M⁻¹ s⁻¹.
